Laboratory results published in paper PMC9667317.

How the values were obtained:
Conditions in all cases: other: capillary electrophoresis
[1] = biological target: WT Cu, Zn superoxide dismutase-1 (SOD1), recombinant human (UniProt P00441); experiment: capillary electrophoresis; both homodimers as 4Zn-SOD1; 15 μM dimer each ([SOD1]total = 30 μM), followed over time; 10 mM potassium phosphate pH 7.4, CE at 22 °C, storage at 15 °C; KHet assumed from the fit extrapolated to t = 5000 min
[2] = biological target: WT Cu, Zn superoxide dismutase-1 (SOD1), recombinant human (UniProt P00441); experiment: capillary electrophoresis; both homodimers apo (metal-free, disulfide intact), mixed at 15 μM dimer each ([SOD1]total = 30 μM), followed over time; 10 mM potassium phosphate pH 7.4, CE at 22 °C, storage at 15 °C; KHet assumed from the fit extrapolated to t = 5000 min
[3] = biological target: WT Cu, Zn superoxide dismutase-1 (SOD1), recombinant human (UniProt P00441); experiment: capillary electrophoresis; binder (first named) as 4Zn-SOD1, target (second named, WT or TD) as apo-SOD1; 15 μM dimer each ([SOD1]total = 30 μM), followed over time; 10 mM potassium phosphate pH 7.4, CE at 22 °C, storage at 15 °C; KHet assumed from the fit extrapolated to t = 5000 min
[4] = biological target: WT Cu, Zn superoxide dismutase-1 (SOD1), recombinant human (UniProt P00441); experiment: capillary electrophoresis; binder (first named) as apo-SOD1, target (second named, WT or TD) as 4Zn-SOD1; 15 μM dimer each ([SOD1]total = 30 μM), followed over time; 10 mM potassium phosphate pH 7.4, CE at 22 °C, storage at 15 °C; KHet assumed from the fit extrapolated to t = 5000 min

WT Cu, Zn superoxide dismutase-1 (SOD1), recombinant human, sequence (P00441 whole entry): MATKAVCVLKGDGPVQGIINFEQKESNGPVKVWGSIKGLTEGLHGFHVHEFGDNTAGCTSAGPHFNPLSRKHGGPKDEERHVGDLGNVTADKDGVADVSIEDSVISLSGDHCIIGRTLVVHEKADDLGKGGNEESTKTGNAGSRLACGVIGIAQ
triply deamidated SOD1 (modeled with N26D/N131D/N139D substitutions), recombinant human, sequence (chain, as listed by the source N26D N131D N139D): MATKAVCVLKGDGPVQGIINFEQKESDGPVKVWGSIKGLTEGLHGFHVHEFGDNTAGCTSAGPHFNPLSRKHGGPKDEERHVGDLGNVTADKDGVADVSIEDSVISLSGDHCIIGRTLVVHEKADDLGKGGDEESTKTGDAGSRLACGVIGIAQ

## triply deamidated SOD1 (modeled with N26D/N131D/N139D substitutions), recombinant human
[1]
  t30% (time to reach 30% heterodimer): 339 min
[2]
  t30% (time to reach 30% heterodimer): 85.8 min
[3]
  t30% (time to reach 30% heterodimer): 297 min
[4]
  t30% (time to reach 30% heterodimer): 188 min
